Laboratory results published in patent US20120244208A1, “COSMETIC SKIN CARE METHODS AND COMPOSITIONS” (priority 2009, published 2012).

Columns and labels:
[1] = system: Normal human dermal fibroblasts (NHDFs) seeded on collagen type 1 gels; test: Fibroblast-seeded collagen gel contraction; type: cell-based; details: monitored for a further 3 days
[2] = system: Normal human dermal fibroblasts (NHDFs) seeded on collagen type 1 gels; test: Fibroblast-seeded collagen gel contraction; type: cell-based; details: 0.1 mg/ml lactoferrin, 0.1 mg/ml ICI 118 551, 1.0 mg/ml Isoproterenol, 3.5×10^4 cells per well
Procedure: Normal human dermal fibroblasts (NHDFs) were obtained by tissue donation following circumcision following patient informed consent. The tissue was rinsed in Phosphate Buffered Saline (PBS) and Pen/Strep and Amphotericin B (Pen/strep) at 10 ug/ml. The tissue was then minced to 1 mm2 sections and suspended in Trypsin-EDTA 1:250 at room temperature (RT) for 1 hr. The tissue was then washed twice by centrifugation at 2500 g for 3min in serum supplemented DMEM/F12. A single cell suspension was created using mechanical disaggregation. The cells were counted using a haemocytometer and cultured at 1×10^6 cells per T75 tissue culture flask in DMEM/F12 containing 10% Fetal Bovine Serum (FBS) and 10 ug/ml Pen/strep. Incubators were kept at 37° C. and 5% CO2. Medium was changed every 3-4 days and cells were used from the 4th passage in vitro.
Collagen gels were formed. A solution of collagen, consisting of 2 mg/ml type 1 bovine collagen from bovine Achilles tendon in 0.5M acetic acid, was made. This made up 80% of the gel. Another 10% was made up of 10×PBS and the remaining volume was made up of FBS. The pH of the entire solution was adjusted to 7.4 using NaOH. 400 μl of the solution was placed into each well of a 24 well plate. The gels were set at 37° C. for 1 hr. After ensuring that the gels were set properly, they were detached from the sides of the wells and exposed to 1 ml fully supplemented DMEM/F12 overnight to acclimatize. The complete gels were seeded with 3.5×10^4 cells per well and the test compounds were added at this point. The test compound were added as follows: 0.1 mg/ml lactoferrin, 0.1 mg/ml ICI 118 551, 1.0 mg/ml Isoproterenol. A cell only and no cell control were also incuded.
Photographs were taken from the same distance at 0, 3, 6, 12 and 24 hrs of exposure using a Canon Powershot A640 10MP camera. The photos were transferred to CorelDRAW X3 and the inside diameter of the well as well as the outer edge of the gel were measured using the circle tool. […] These two diameters were then converted to a percentage of the well diameter by the formula geloutside/wellinside×100=gelrelative. This value was then worked out the same way for each gel at every time period. The time period Ohrs taken to be 100% of gel size and each time period after that was compared to it as a relative percentage. The standard deviation was calculated based on the original relative percentage to the well.

B1: Lactoferrin (protein, UniProt P02788 20-710, looked up)
Lactotransferrin: GRRRSVQWCAVSQPEATKCFQWQRNMRKVRGPPVSCIKRDSPIQCIQAIAENRADAVTLDGGFIYEAGLAPYKLRPVAAEVYGTERQPRTHYYAVAVVKKGGSFQLNELQGLKSCHTGLRRTAGWNVPIGTLRPFLNWTGPPEPIEAAVARFFSASCVPGADKGQFPNLCRLCAGTGENKCAFSSQEPYFSYSGAFKCLRDGAGDVAFIRESTVFEDLSDEAERDEYELLCPDNTRKPVDKFKDCHLARVPSHAVVARSVNGKEDAIWNLLRQAQEKFGKDKSPKFQLFGSPSGQKDLLFKDSAIGFSRVPPRIDSGLYLGSGYFTAIQNLRKSEEEVAARRARVVWCAVGEQELRKCNQWSGLSEGSVTCSSASTTEDCIALVLKGEADAMSLDGGYVYTAGKCGLVPVLAENYKSQQSSDPDPNCVDRPVEGYLAVAVVRRSDTSLTWNSVKGKKSCHTAVDRTAGWNIPMGLLFNQTGSCKFDEYFSQSCAPGSDPRSNLCALCIGDEQGENKCVPNSNERYYGYTGAFRCLAENAGDVAFVKDVTVLQNTDGNNNEAWAKDLKLADFALLCLDGKRKPVTEARSCHLAMAPNHAVVSRMDKVERLKQVLLHQQAKFGRNGSDCPDKFCLFQSETKNLLFNDNTECLARLHGKTTYEKYLGPQYVAGITNLKKCSTSPLLEACEFLRK
notes: transferrin; known collagen contractor
Q: What does the source list for B1?
A: return of gels to original dimensions [1]: did not return to their original dimensions; % of original size (mean) ([2]; 0 hrs (taken to be 100% of gel size)): 100%; % of original size (mean) ([2]; 3 hrs): 92.62%; % of original size (mean) ([2]; 6 hrs): 64.48%; % of original size (mean) ([2]; 12 hrs): 54.71%; % of original size (mean) ([2]; 24 hrs): 49.73%
